Assay results reported in US20210186010A1, “SURFACES […] QUORUM SENSING MODULATORS” (priority 2015, published 2021).
Several values for one entry are separate records, joined by “and”; a condition that tells them apart may be missing. Identical values can stand only once.

How the values were obtained:
[1] = system: Agr QS in the S. aureus reporter strain; experiment: Solution Assay: fluorescence reporter assay (agrP3-mkate2 normalized to sarAP1-gfpmut2), plate reader; format: cell-based, Staphylococcus aureus; details: activation of Agr QS, compound in solution; n=3 experiments
Description: Transcription from fluorescence reporter genes was measured in S. aureus strain MK242. Overnight cultures were diluted 1:200 into fresh TSB with 10 µg/ml tetracycline and 10 µg/ml erythromycin, re-grown, and 90 μl of these cultures were distributed into wells of 96 well plates (MatTek, Ashland, Mass.), followed by addition of 10 μl of AIP-I and/or TrAIP-II and/or derivatives. Subsequently, 50 μl of mineral oil was added (Sigma, St. Louis, Mo.) to prevent evaporation. Using a Synergy 2 plate reader (Biotek, Winooski, Vt.), GFPmut2 and mKate2 levels were measured at 484 nm/528 nm and 588 nm/633 nm, respectively. Measurements were conducted with 15 min intervals at 37° C. with shaking. This assay was called “Solution Assay”.
To make AIP-I amenable to surface attachment, AIP-I containing an alkyne at the N-terminus was synthesized (FIG. 7A and FIG. 8A). This compound was called “Alkyne-AIP-I” (FIG. 2A). Prior to attaching the Alkyne-AIP-I to the surface linkers, the click reaction was carried out between the Alkyne-AIP-I and a surface-free version of the PEG330-azide linker to test if the AIP-I derivatives retained their activation capability following the click reaction. […] This compound was called “PEG330-triazole-AIP-I” (FIG. 2A (iii), FIG. 7A and FIG. 8B).
It was investigated whether a QS antagonist, when immobilized on a surface, could interfere with Agr QS signal transduction. […]

[2] = system: Agr QS in the S. aureus reporter strain; experiment: Fluorescence imaging / single-cell analysis of S. aureus reporter strain incubated with compounds in solution; format: cell-based, Staphylococcus aureus; details: 100 nM AIP-I, 3 h incubation
Description: FIG. 1 Includes FIG. 1A-FIG. 1C. FIG. 1A. illustrates the Agr QS responses of S. aureus to exogenously supplied agonists and antagonists. To follow the QS status of S. aureus cells growing on unmodified and chemically-modified surfaces, confocal microscopy and an S. aureus reporter strain that produced the fluorescent protein mKate2 in response to exogenous addition of AIP-I was used. The reporter strain was a ΔagrBDCA ΔRNAIII S. aureus mutant harboring a multicopy plasmid carrying agrCA driven by the native agrP2 promoter. […] The plasmid also harbored the Agr-activated agrP3 promoter fused to mkate2. Therefore, in response to exogenously provided AIP-I, the reporter strain fluoresced red. This QS response was repressed by the administration of TrAIP-II. A constitutively expressed sarAP1-gfpmut2 gene was introduced into the chromosome to enable normalization of QS responses^18. FIG. 1B. […]
FIG. 1B. Fluorescence images of the S. aureus reporter strain (pathways shown in panel FIG. 1A) after 3 h incubation with buffer or buffer containing 100 nM AIP-I agonist. […] Fluorescence images of the S. aureus reporter strain used in this study following 3 h incubation with TrAIP-II or with combinations of AIP-I and TrAIP-II. […]
FIG. 6. […] To identify the source of heterogeneity, the fluorescent protein distributions in individual cells was measured under different conditions. […]

[3] = target: AgrC-I receptor (Staphylococcus aureus (agr-I)); experiment: cell-based or functional assay

Row | Substance | EC50 of Agr QS activation (agrP3-mkate2 reporter normalised to constitutive GFPmut2, solution assay, S. aureus reporter strain) [3] [nM] | IC50 of Agr QS inhibition when AIP-I is present at 100 nM (reporter solution assay) [3] [µM] | other results
1 | AIP-I |  |  | EC50 [1]: 28 nM and 30 nM; mKate2 production (QS-controlled reporter) [2]: mKate2 was produced only when AIP-I was supplied to the cells
2 | AIP-I (peptide) | 28 |  | 
3 | Alkyne-AIP-I (peptide) | 190 |  | 
4 | Alkyne-TrAIP-II (peptide) |  | 0.21 | 
5 | PEG330-triazole-AIP-I (peptide) | 1100 |  | 
6 | PEG330-triazole-TrAIP-II (peptide) |  | 3.1 | 
7 | Surface-PEG10000-triazole-AIP-I (peptide) |  |  | activation of the Agr QS response at T=6 h against T=0 h (surface assay, microfluidic chambers) [3]: 25 fold; surface coverage density above which the QS response is saturated [3]: > 16000 µm^-2; surface coverage density below which no QS response is elicited [3]: < 210 µm^-2
8 | TrAIP-II (peptide) |  | 1.5 | decrease in QS inhibition when TrAIP-II is lowered from 2.5 µM to 250 nM, with 100 nM AIP-I [3]: 9 fold
